From US20190248860A1 (Stanford University, published 2019)
Where a chain is given by its changes, count along the chain named. Each block holds one binder with its values, some of them ahead of it.

Legend:
[1] = molecular target: T1, biotinylated IL-2Rβ ectodomain (C-terminal biotin acceptor peptide and hexahistidine tag) (UniProt P14784 27-240, C-terminally biotinylated on the biotin acceptor peptide (coexpressed BirA ligase)); assay: yeast display screen, labeling with 5 nM IL-2Rβ and then SAV-PE
T1 construct: range 1-214; Yeast staining reagent; in the second generation screen used as monomer, then detected with SAV-PE; also called tetrameric IL-2Rβ; monomeric IL-2Rβ
T1 sequence: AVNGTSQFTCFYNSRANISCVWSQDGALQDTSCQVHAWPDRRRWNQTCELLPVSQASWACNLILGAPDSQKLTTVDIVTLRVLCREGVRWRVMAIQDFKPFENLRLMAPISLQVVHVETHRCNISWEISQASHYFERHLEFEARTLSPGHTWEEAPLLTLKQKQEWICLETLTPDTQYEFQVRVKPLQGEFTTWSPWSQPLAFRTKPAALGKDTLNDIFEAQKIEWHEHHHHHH
Procedure: Upon conclusion of selections, round four and round five yeast cultures were spread on SD-CAA plates, which yielded individual yeast colonies. 48 individual yeast clones from both rounds were grown in 96-well block format and screened by labeling with 5 nM IL-2Rβ and then SAV-PE.

[2] = molecular target: T2, IL-2Rβ ectodomain (amino acids 1-214), recombinant (UniProt P14784 27-240); assay: method not given; SPR according to Example 10
T2 construct: range 1-214; Used for the SPR and crystal entries; also called IL-2R13; interleukin 2 receptor beta
T2 sequence: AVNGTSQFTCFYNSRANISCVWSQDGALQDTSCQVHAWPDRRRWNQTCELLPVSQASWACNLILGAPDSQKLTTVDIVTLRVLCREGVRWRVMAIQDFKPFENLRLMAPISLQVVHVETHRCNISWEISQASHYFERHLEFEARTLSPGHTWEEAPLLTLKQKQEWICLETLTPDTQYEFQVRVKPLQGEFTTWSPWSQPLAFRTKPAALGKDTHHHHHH

[3] = molecular target: T2, IL-2Rβ ectodomain (amino acids 1-214), …; assay: surface plasmon resonance
[4] = molecular target: T2, IL-2Rβ ectodomain (amino acids 1-214), …; assay: SPR affinities, as told in the structural discussion

binding result [1]: binds
B1: yeast-displayed IL-2 mutein C5 (ligand)
chain: APTSSSTKKTQLQLEHLLLDLQMILNGINNYKNPKLTRMLTFKFYMPKKATELKHLQCLEEELKHLEEVLNLANSKNFHVTPRDVVSNINVFVLELKGSETTFMCEYADETATIVEFLNRWITFCQSIISTLT
notes: Clone of the second generation yeast display library; also called C5 (yeast clone); not shown: yeast surface display fusion partner and linker encoded by vector pCT302

Kd [2]: 10 nM
koff [3]: 0.016 s⁻¹
B2: IL-2 mutein C5 (ligand)
chain: APTSSSTKKTQLQLEHLLLDLQMILNGINNYKNPKLTRMLTFKFYMPKKATELKHLQCLEEELKHLEEVLNLANSKNFHVTPRDVVSNINVFVLELKGSETTFMCEYADETATIVEFLNRWITFCQSIISTLTHHHHHH

fold affinity gain from wild-type IL-2 [4]: ~300 fold
B3: IL-2 mutein D10 (ligand)
chain: B2 chain with H65P, N74H, V80F, T81D
notes: also called IL-2 D10; super-2
